Eleven molecules from patent US20250250357A1 (NANJING ZAIMING PHARMACEUTICAL, published 2025) can be followed below.

Substitutions are numbered along the chain they refer to.

The labels stand for the following.
T1: monkey MSLN full-length protein (NCBI: XP_028696439.1) expressed on HEK293T-monkey MSLN cells (monkey)
T1 construct: Whole encoded precursor
T1 chain: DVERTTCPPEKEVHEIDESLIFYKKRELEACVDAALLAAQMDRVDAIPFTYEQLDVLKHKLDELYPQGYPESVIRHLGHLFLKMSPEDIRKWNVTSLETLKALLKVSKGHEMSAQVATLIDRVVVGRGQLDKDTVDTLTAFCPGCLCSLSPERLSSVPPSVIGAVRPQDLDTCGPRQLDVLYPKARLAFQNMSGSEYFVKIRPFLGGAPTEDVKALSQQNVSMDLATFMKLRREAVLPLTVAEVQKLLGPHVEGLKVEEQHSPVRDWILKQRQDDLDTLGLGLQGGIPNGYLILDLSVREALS

B1: S009-F7.18.10 (antibody, human IgG1, kappa, V domains shown)
VH: QVQLQQSGAELVRPGTSVKVSCKASGYAFTNYLIEWVKQRPGQGLEWIGVINPGSGGTKYNEKFKGKATLTADKSSSTAYMQLSSLTSEDSAVYFCASDYDYDPFAYWGQGTLVTVSA
VL: DIVMTQSHKFMSTSVGDRVSITCKASQDVSTAVAWYQRKPGQSPKLLIYWASTRHTGVPDRFTGSGSGTDYTLTISYMQAEDLALYYCQQHYSTPYTFGGGTKLEIKR
notes: human-murine chimeric antibody, human IgG1/kappa constant regions
B2: S009-F7.21.16 (antibody, human IgG1, kappa, V domains shown)
VH: QVQLQQPGTELVKPGASVKLSCKASGYTFTTFWMHWVKQRPGQGLEWIGGVNPTNGGTNYNEKFRTKATLTVDKSSTTADMQLSSLTSEDSAVYYCAPHYISSRPGFAYWGQGTLVTVSG
VL: DIVMTQSQKFMSTSGGDRVSVTCKASQNVGTNVAWYQQKPGQSPKALIYSASYRYSGVPDRFTGSGSGTDFILTISNVQSEDLAEYFCQQYNSYPLTFGGGTKLEIKR
notes: as for B1
B3: S009-F7.30.5 (antibody, human IgG1, kappa, V domains shown)
VH: QVQLQQPKTELVKPGASVKLSCKASGYIFTTYWMHWVKQRPGQGLEWIGNVNPSNGGTMYNEKFERRATLTVDKSSSTADMQLSSLTSEDSAVYYCVPHYIGSRPGFAYWGQGTLVTVSG
VL: B2 VL with G15V, Q38H, I48L, I72T, S76T
notes: as for B1
B4: S009-F7.25.19 (antibody, human IgG1, kappa, V domains shown)
VH: QVQLQQPGTELVKPGASVKLSCKASGYTFTSYWMHWVKQRPGQGLEWIGNIIPSNGGTKYNEKFKSKATLTVDKSSSTAYMQLSSLTSEDSAVYYCSPHYYGGSPGFAYWGQGTLITVSA
VL: B2 VL with G15V, T22I, I72T
notes: as for B1
B5: S009-F7.33.24 (antibody, human IgG1, kappa, V domains shown)
VH: B2 VH with T31S, F32Y, G50N, T54S, T58S, R65K, T66N, T77S, S84N, S102G
VL: B2 VL with G15V, V33I, I72T, S76T, L104V
notes: as for B1
B6: S009-F7.11.11 (antibody, human IgG1, kappa, V domains shown)
VH: EVQLQQSGPELVKPGASVKIPCKASGYTITDYNMDWVKQSRGKSLEWIGDVFPYNGDSIYNQKFEGRATLTVDKYSSTAYMELRGLTSEDTAVYFCARRKTGTGYFDVWGTGTTVTVSS
VL: QLVLTQSPAIMSASPGEKVTLTCSASSSVSSTYLSWYLQKPGSSPKLWIYSTSNLASGVPARFSGSGSGTSYSLTISSMEAEDAASYFCHQWSSYPYTFGGGTKLEIKR
notes: as for B1
B7: S009-F7.12.13 (antibody, human IgG1, kappa, V domains shown)
VH: EVQLQQSGPELVKPGASVKIPCKASGYTFTDYNMDWVKQSHGKGLEWIGDINPNTDDTIYNQKFNGKATLTVDKSSSTAYMELRSLTSEDTAVYYCSRRLIGTGYFDVWGTGTTVTVSS
VL: B6 VL with L2I, S30I, S35C, L38R, K46E, S94N, E106G, I107M
notes: as for B1
B8: S009-F7.26.15 (antibody, human IgG1, kappa, V domains shown)
VH: DVQLQESGPGLVKPSQTVFLTCTVTGISITTGNYRWSWIRQFPGNKLEWIGYIYYTGFITYNPSLTSRTTITRDTPKNQFFLEMKSLTAEDTATYYCARDDYDYDVFAYWGQGTLVTVSA
VL: DIQMTQSPASLSASVGETVTITCRASGNIHNYLAWYHQKQGKSPQFLVYKAKTLADGVPSRFSGSGSGTQYSLKINRLQPEDFGSYYCQHFLSIPLTFGAGTKLELKR
notes: as for B1
B9: S009-F7.6.17 (antibody, human IgG1, kappa, V domains shown)
VH: QVQLQQSGAELARPGASVKMSCKASGYTFTTYTMHWVKQRPGQGLEWIGYISPTGDFTKYNQKFKDKATLTTDKSSNTAFMQLSSLTSEDSAVYYCARWNGTVWFAYWGQGTLVTVSA
VL: DIVMTQSQKFMSTSVGDRVTVTCKASQALGTNVAWYQQKPGQSPKVLIYSASYRYSGVPYRFAGGGSGTDFTLTITNVQSEDLAEYFCQQYNNYPLTFGAGTKLELKR
notes: as for B1
B10: S009-F7.23.19 (antibody, human IgG1, kappa, V domains shown)
VH: EVKLVESGGGLVQPGGSLSLSCAASGFTFTDYYMSWVRQPPGKALEWLGFIRSKANAYTTEYSASVKGRFTISRDNSQSILYLQMNDLRAEDSATYYCARYYYYGSGYVWYFDVWGTGTTVTVSS
VL: B2 VL with G15V, N28S, S43F, I72T, S76I, G100A, I106L
notes: as for B1
B11: Tab106 (YP218, hIgG1) (antibody, V domains shown)
VH: QQQLEESGGGLVKPEGSLTLTCKASGFDLGFYFYACWVRQAPGKGLEWIACIYTAGSGSTYYASWAKGRFTISKASSTTVTLQMTSLAAADTATYFCARSTANTRSTYYLNLWGPGTLVTVSS
VL: DVVMTQTPASVSEPVGGTVTIKCQASQRISSYLSWYQQKPGQRPKLLIFGASTLASGVPSRFKGSGSGTEYTLTISDLECADAATYYCQSYAYFDSNNWHAFGGGTEVVVRT
notes: control antibody; YP218 VH and VL in human IgG1 CH and CL vectors; also called YP218 human IgG1 antibody

T3 sequence (Q13421 495-614): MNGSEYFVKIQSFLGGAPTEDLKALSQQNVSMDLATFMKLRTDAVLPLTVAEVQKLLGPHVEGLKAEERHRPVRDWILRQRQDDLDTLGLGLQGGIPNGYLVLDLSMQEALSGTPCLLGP

One assay deals with T2, human MSLN protein endogenously expressed on OVCAR3 tumor cells (human, UniProt Q13421 296-598).
T2 construct: whole, on cells; Endogenous target on OVCAR3 cells; kept apart from the recombinant full-length construct; also called mesothelin
T2 sequence (Q13421 other isoform, or with tags, fused parts or gaps): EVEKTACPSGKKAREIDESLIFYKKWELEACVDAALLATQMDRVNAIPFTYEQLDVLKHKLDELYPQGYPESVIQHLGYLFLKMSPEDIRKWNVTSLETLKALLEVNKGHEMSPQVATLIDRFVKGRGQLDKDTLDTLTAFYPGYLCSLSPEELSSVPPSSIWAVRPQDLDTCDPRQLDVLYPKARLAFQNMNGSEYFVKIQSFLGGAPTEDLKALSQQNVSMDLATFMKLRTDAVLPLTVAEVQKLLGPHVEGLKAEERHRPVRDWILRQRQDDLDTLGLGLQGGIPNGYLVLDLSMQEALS
In words: FACS on OVCAR3 cells.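 Also: flow cytometry binding of test antibodies to cells, 2 h incubation on ice, readout as cell mean fluorescence intensity.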
Procedure: (§1) The desired cells were expanded to the logarithmic growth phase in a T-75 cell culture flask. […] After the cells from the previous step were subjected to cell counting, the cell pellet was resuspended to 2×10⁶ cells/mL in a blocking buffer of [PBS+2% (w/w) BSA] and added into a 96-well FACS reaction plate at 50 μL/well. A chimeric antibody (a sample to be tested) was added at 50 μL/well, and the plate was incubated on ice for 2 h. […] After the plate was centrifuged and washed 5 times with a PBST buffer, assay and analysis were performed by FACS (FACS CantoII, purchased from BD). Data analysis was performed by software (Flowjo) to obtain the mean fluorescence intensity (MFI) of the cells.
The EC50 is the concentration that produces a half-maximal response. With B1, the midpoint of the response, the EC50, lay at 3.29 nM and the “Maximum mean fluorescence intensity” value is 29900.

Take B2: the EC50 stood at 0.52 nM and the “Maximum mean fluorescence intensity” value is 32600.

In the case of B3, the EC50 was 0.66 nM and the “Maximum mean fluorescence intensity” value stood at 31800.

On to B4, for which the midpoint of the response, the EC50, lay at 0.18 nM and the “Maximum mean fluorescence intensity” value amounted to 24200.

Regarding B5, the EC50 came out at 0.15 nM and the “Maximum mean fluorescence intensity” value is 31200.

On to B6, for which the EC50 worked out at 0.86 nM and the “Maximum mean fluorescence intensity” value was 31800.

As for B7, it took 0.32 nM to reach a half-maximal effect (EC50) and the “Maximum mean fluorescence intensity” value was 21400.

Regarding B8, a half-maximal response (EC50) required 0.2 nM and the “Maximum mean fluorescence intensity” value was 16200.

On to B9, for which the EC50 stood at 0.99 nM and the “Maximum mean fluorescence intensity” value was determined as 31800.

For the molecule B10, the EC50 was found to be 0.15 nM and the “Maximum mean fluorescence intensity” value worked out at 29300.

A further assay concerns the target T3, human MSLN-R3 protein (Met487-Ser606 of NCBI AAH09272.1) expressed on HEK293T-hMSLN-R3 cells (human, UniProt Q13421 487-606).
T3 construct: also called Region3
In words: FACS on HEK293T-hMSLN-R3 cells.
Procedure: as §1
For the molecule B1, the “Maximum mean fluorescence intensity” value turned out to be 39 and the binding result was “no binding”.

As for B2, the EC50 was 0.16 nM and the “Maximum mean fluorescence intensity” value was 6820.

As for B3, the response was half-maximal at 0.24 nM (EC50) and the “Maximum mean fluorescence intensity” value is 6160.

Turning to B4, the midpoint of the response, the EC50, lay at 0.06 nM and the “Maximum mean fluorescence intensity” value turned out to be 5350.

As for B5, the concentration giving a half-maximal response (EC50) amounted to 0.06 nM and the “Maximum mean fluorescence intensity” value was determined as 6480.

For the molecule B6, the response was half-maximal at 0.28 nM (EC50) and the “Maximum mean fluorescence intensity” value is 6260.

As to B7, the EC50 amounted to 0.12 nM and the “Maximum mean fluorescence intensity” value is 6610.

For the molecule B8, the EC50 came to 0.09 nM and the “Maximum mean fluorescence intensity” value is 6940.

On to B9, for which the EC50 is 0.31 nM and the “Maximum mean fluorescence intensity” value is 6420.

On to B10, for which the EC50 amounted to 0.05 nM and the “Maximum mean fluorescence intensity” value stood at 6570.

For another assay, the target named is T4, human MSLN-R3 protein expressed on HEK293T cells (HEK293T-hMSLN-R3) (human, UniProt Q13421 487-606).
T4 construct: C-terminal limit uncertain
T4 sequence (Q13421 495-614): as the sequence (Q13421 495-614) above
As to the kind of experiment: FACS on HEK293T-hMSLN-R3 cells.
Procedure: as §1
With B11, the EC50 was 1 nM and the “Maximum mean fluorescence intensity” value is 24500.

For the next assay, the target named is T1, monkey MSLN full-length protein (NCBI: …). As to the kind of experiment: FACS on HEK293T-monkey MSLN cells.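 Also: flow cytometry binding of chimeric antibodies to the cells, with a 2 h incubation on ice.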
Procedure: as §1
As to B1, the midpoint of the response, the EC50, lay at 0.47 nM and the “Maximum mean fluorescence intensity” value was 50600.

B2: the EC50 is 0.3 nM and the “Maximum mean fluorescence intensity” value stood at 50900.

For B3, the EC50 came to 0.34 nM and the “Maximum mean fluorescence intensity” value was determined as 47400.

In the case of B4, the concentration giving a half-maximal response (EC50) is ~0.16 nM and the “Maximum mean fluorescence intensity” value was determined as 43200.

As to B5, the EC50 came to 0.13 nM and the “Maximum mean fluorescence intensity” value came out at 47300.

As for B6, the 50% effective concentration (EC50) is 0.41 nM and the “Maximum mean fluorescence intensity” value was 49500.

On to B7, for which the response was half-maximal at 6.34 nM (EC50) and the “Maximum mean fluorescence intensity” value stood at 7630.

Regarding B8, the “Maximum mean fluorescence intensity” value stood at 108 and the binding result was “no binding”.

On to B9, for which the EC50 amounted to 0.7 nM and the “Maximum mean fluorescence intensity” value came to 56100.

B10: the midpoint of the response, the EC50, lay at 0.13 nM and the “Maximum mean fluorescence intensity” value was 54300.
